Here are results for 3 molecules from patent US20160334414A1 (BAXALTA, published 2016).

The chains are these.
B1: monoclonal rabbit anti-RAM9 idiotypic antibody 54-5 (antibody, V domains shown)
VH: QSLEESGGDLVKPGASLTLTCTASGFSFSSGYDMCWVRQAPGKGLEWIACIYDGDVRTYYASWAKGRFTISRTSSTTMTLQMTGLTAADTATYLCARGASGYLSALYLWGPGTLVTVSS
VL: DVVMTQTPASVSEPVGGTVTIKCQASFTITSNLAWYQQKPGQPPKLLIYGASNLASGVSSRFRGSGFGTEFTLTISDLECADAATYYCQCAAVLSSWTFGGGTEVVVKG
notes: Rabbit IgG; also called anti-RAM9-54-5; Clone 54-5
B2: monoclonal rabbit anti-RAM9 idiotypic antibody 68-1 (antibody, V domains shown)
VH: QEQLKESGGRLVKPGGTLTLTCKASGMDFNNYYYMAWVRQAPGKGLEWIGYISGGGSPYYASWAKGRFTISRTSTTVDLKMTSLTTEDTATYFCGRYTDINNGIDLWGPGTLVTVSS
VL: DIVMTQTPSSVSEPVGGTVTINCQASENIYSNLAWYQQKPGQPPKLLIYLASSLTSGVPSRFKGSGSGTEFTLTISDLECADAAIYYCQNNYGDVRYGRNAFGGGTEVVVKG
notes: Rabbit IgG; also called anti-RAM9-68-1; Clone 68-1
B3: anti-oxMIF antibody RAM9 (antibody, V domains shown)
VH: EVQLLESGGGLVQPGGSLRLSCAASGFTFSIYSMNWVRQAPGKGLEWVSSIGSSGGTTYYADSVKGRFTISRDNSKNTLYLQMNSLRAEDTAVYYCAGSQWLYGMDVWGQGTTVTVSS
VL: DIQMTQSPSSLSASVGDRVTITCRSSQRIMTYLNWYQQKPGKAPKLLIFVASHSQSGVPSRFRGSGSETDFTLTISGLQPEDSATYYCQQSFWTPLTFGGGTKVEIKR
notes: also called biotinylated RAM9

The target in the test “anti-oxMIF antibody RAM9” is B3. As to the kind of experiment: secondary screening (neutralising) ELISA with finally purified antibody: inhibition of biotinylated RAM9 binding to coated human MIF, % recovery; the number stands in paragraph 159 without a unit, ng/ml is from the axis log c (ng/ml) of the figure. On the procedure:
Microplates were coated with human MIF (10 μg/ml PBS, 100 μl/well) and blocked with 250 μl 1.5% fish gelatin in PBS. Washing steps (4×250 μl of PBS per well) were included between the incubations. The samples were serially pre-diluted (in 1% fish gelatin/PBS) to 2× final dilution and mixed with an equivalent volume of biotinylated RAM9 (30 ng/ml) (equivalent to a 1:2 dilution, final concentration of RAM9 is therefore 15 ng/ml). These mixtures were allowed to form complexes for 30 min. […] Biotinylated RAM9 captured on the plate was detected using HRP coupled Streptavidin and TMB as chromogenic substrate. The absorbance of each well was related to the absorbance of the standard curve by linear regression and is expressed in ng/ml. The concentration calculated for biotinylated RAM9 in the sample is related to the calculated concentration of biotinylated RAM9 in the negative control (% recovery=(100%/measured concentration of biotinylated RAM9 in the negative control)×measured concentration of RAM9 in the sample). Half maximal binding inhibition (IC₅₀) by anti-RAM9 antibodies is calculated by blotting log concentration of rabbit anti-RAM9 against % recovery and non-linear 4-parameter curve fit with variable slope FIG. 4a.

Test [1] has as its target T1, oxMIF in human tissue cryosections (human, UniProt P14174 2-115).
T1 construct: also called oxidized MIF
Put plainly: IHC on pancreas cryosections, 68-1 without the primary antibody RAM9. The procedure: (§1) The slides were prepared according to state of the art techniques known to experts, either fresh frozen or OCT embedded, sectioned at 10 μm and stored at <=−80° C. after sectioning. All following steps were done at ambient temperature. The cryo-sections were air dried for 30 min and unspecific binding was blocked with blocking buffer (BB: 20% Normal Goat Serum/2% Bovine Serum Albumin/0.2% Fish Gelatine in TBS) for 15 min. The sections were then incubated without primary antibody or with anti-oxMIF antibody RAM9 in primary antibody dilution buffer (PADB: 2% Bovine Serum Albumin/0.2% Fish Gelatine in TBS) at a concentration of 2 μg/ml for 60 min. After washing in TBS, the specimen was fixed in 4% PBS buffered formaldehyde for 20 min. Excess formaldehyde was removed by washing in TBS for 5-10 min, Endogenous peroxidases were blocked by incubating the tissue sections in 0.3% H₂O₂ in methanol for 20 min. Excess methanol/H₂O₂ was removed by washing in TBS for 5-10 min. Detection of was done by incubating the tissue sections with anti-idiotypic rabbit monoclonal antibodies (68-1) diluted in PADS at 1 μg/ml for 30 min. Excess detection antibody was removed by washing in TBS for 5-10 min. The staining was done using SignalStain® Boost IHC Detection Reagent Rabbit for 30 min. Then the sections were extensively washed again 10 min in TBS. […]

The target in test [2] is T1, oxMIF in human tissue cryosections. Put plainly: IHC on infiltrating ductal carcinoma of the pancreas, RAM9 detected by rabbit anti-RAM9 54-5 or 68-1. The procedure:
as §1

T1 sequence (P14174 2-115 limits assumed): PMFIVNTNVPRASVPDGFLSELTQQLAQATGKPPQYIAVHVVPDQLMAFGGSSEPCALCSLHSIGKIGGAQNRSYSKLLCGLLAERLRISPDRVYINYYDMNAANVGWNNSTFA

By IC50 is commonly meant the concentration at which inhibition is half-maximal. A lower IC50 goes with higher potency. B1 gave a concentration for half-maximal inhibition (IC50) with anti-oxMIF antibody RAM9 of 0.00596 µg/mL.
B2 yielded a half-inhibitory concentration (IC50) with anti-oxMIF antibody RAM9 of 0.0296 µg/mL. Further, the binding result in test [1] was “no binding (tested: 1 µg/ml)”.
As to B3, in test [2], the binding result was “binds”.
